Assay results: patent US20150202161A1, “PROCESS FOR MANUFACTURING DRUG DELIVERY FORMULATIONS” (O-RAY PHARMA, INC., priority 2012, published 2015)

Assay: In vitro release (dissolution) of Infliximab from packed silicone cup and of lyophilized powder
Assay type: physicochemical
Conditions: release into 600 μl water with stirring at room temperature (23° C.); UV absorption at 280 nm
Method: A solid drug pellet (FIG. 4, 402.) was created by mixing 75% infliximab with 25% hydroxy propyl methyl cellulose (HPMC). This solid pellet was packed into a silicone cup (FIG. 1, 101.). The drug can only release from one end of the silicone and this end is subsequently coated with a controlled release polymer formulation of 5 μl of 10% polylactic acid (FIG. 1, 107.) to control its release. Dissolution studies were performed with lyophilized infliximab powder and infliximab packed extended release formulations. For each sample, release into 600 μl water was carried out with stirring at room temperature (23° C.). Aliquots were removed at timed intervals and analyzed with UV absorption spectroscopy at 280 nm using a Spectramax Plus384 96 well plate reader.

Substance: Lyophilized infliximab powder: TNF-α inhibitor infliximab as unformulated lyophilized powder, comparator in dissolution study
- release upon addition to solvent: releases almost immediately
